Experimental findings from the supplement of paper PMC9170038 are described below.

The subject of the data set is K4 kissing-loop RNA reporter. Description: apparent KD of K4 kissing-loop reporter; higher = weaker reporter binding. The settings on record: Eterna round: R107. The procedure:
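RNA-MaP round R107: designed RNA switches with theophylline, tryptophan, arginine or FMN aptamers are transcribed on-chip within common flanks. They are titrated with a labelled K4 kissing-loop RNA reporter in RNA-MaP buffer (100 mM Tris pH 7.5, 80 mM KCl, 4 mM MgCl2), without ligand or with the indicated ligand. Median apparent KD per design.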

Setting [1] is: input ligand: theophylline 20 uM.
The mark [2] stands for this setting: input ligand: tryptophan 2.4 mM.
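Also: bound reporter read as fluorescence of individual clusters on recovered sequencing chips by microscopy, with normalized cluster intensities fitted with a binding model.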

With “UUCAUCGUGGUUCGCGGGUGGUAUGAAAAGCGAGGACCGGUACGGCCGCCACUCGGUUCCGCUUGUUGAGUGAUGUUCAAUAUUU”, the “apparent KD of K4 kissing-loop reporter” value worked out at 207 nM (input ligand: FMN 200 uM); 281 nM (input ligand: arginine 13.2 mM); 251 nM (input ligand: none); 350 nM under setting [1]; 229 nM under setting [2].

As for “UUCUACGUGCAAGGAUAUCCAUACGCUGCCCAGCGGGUAGCGAUAUAUGGAGUGAUGUUCCAUGUAGGAGAAGGUGCACUGUCCU [Atrea]”, the “apparent KD of K4 kissing-loop reporter” value was found to be 149 nM (input ligand: FMN 200 uM); 386 nM (input ligand: arginine 13.2 mM); 457 nM (input ligand: none); 466 nM under setting [1]; 475 nM under setting [2].

Consider “UUCUAGCCGAAAGGCUAGUCGGCUUCAGAUACCAGUCGCGAAAGCGACCCUUGGCAGCUGUGUAGUGAUGUUGCAAAGAAAGCCG”, for which the “apparent KD of K4 kissing-loop reporter” value is 556 nM (input ligand: FMN 200 uM); 435 nM (input ligand: arginine 13.2 mM); 618 nM (input ligand: none); 262 nM under setting [1]; 524 nM under setting [2].

Take “UUGAGCCGGACCCAAGUCCGGCUCUGCGAGCGAGGACCGGUACGGCCGCCACUCGGUGCAGUGAUGUUGCAUGGCCGCAAGGCCG [#2 Exclusion - Tryptophan A Attempt #7 (HarryS)]”: the “apparent KD of K4 kissing-loop reporter” value is 439 nM (input ligand: FMN 200 uM); 294 nM (input ligand: arginine 13.2 mM); 377 nM (input ligand: none); 372 nM under setting [1]; 460 nM under setting [2].

With “UUGCAAAAGUCGGCCGCCACUCCGGGCCCUAUAAAUGGGCGCAGUGAUGUUGCGGCUAGGCCUCUGAGGACCGGGACUUUGUAGC [Aenonlebe]”, the “apparent KD of K4 kissing-loop reporter” value was 79 nM (input ligand: FMN 200 uM); 103 nM (input ligand: arginine 13.2 mM); 142 nM (input ligand: none); 111 nM under setting [1]; 199 nM under setting [2].

Consider “UUGCAUGCUAGGGAAACCUAGCAUGCAUGCCGAGGACCGGUACGGCCGCCACUCGAACGAGUGAUGUUCGUUGACCAAAAUAAAA”, for which the “apparent KD of K4 kissing-loop reporter” value reads like this: (input ligand: FMN 200 uM) 227 nM; (input ligand: arginine 13.2 mM) 468 nM; (input ligand: none) 337 nM; under setting [1], 635 nM; under setting [2], 282 nM.

Consider “UUGGAUUGAUGAGAGUUGAUUUGGUAGGAAGGAGCGGCCGAAAGGCCAGGUAGGUCGCCUAUUGACAGUGAUGUUGUUAUAUGGU [#16]”, for which the “apparent KD of K4 kissing-loop reporter” value (input ligand: FMN 200 uM) came out at 215 nM; the “apparent KD of K4 kissing-loop reporter” value (input ligand: arginine 13.2 mM) turned out to be 228 nM; the “apparent KD of K4 kissing-loop reporter” value (input ligand: none) came out at 237 nM; the “apparent KD of K4 kissing-loop reporter” value under setting [1] worked out at 489 nM; the “apparent KD of K4 kissing-loop reporter” value under setting [2] came to 226 nM.

On to “UUGGGCAACCGAGAUACCAGUCAAAUCGCUCUGGAGUGAUGUUCCGGAACAUGCGGAGAAGACCCUUGGCAGCUCAAGACGGACA [Exclusion Theophylline B GF 1]”, for which the “apparent KD of K4 kissing-loop reporter” value (input ligand: FMN 200 uM) is 111 nM; the “apparent KD of K4 kissing-loop reporter” value (input ligand: arginine 13.2 mM) was 107 nM; the “apparent KD of K4 kissing-loop reporter” value (input ligand: none) turned out to be 107 nM; the “apparent KD of K4 kissing-loop reporter” value under setting [1] was 113 nM; the “apparent KD of K4 kissing-loop reporter” value under setting [2] came to 91.2 nM.

For “UUGGGCAGUGAUGUUGGCUAGGCCACAGAUACCAGACGCAUGCACGUCCCUUGGCAGCUGCGAAAGUUAGACUUGUAAUGAUAGU [theeternabot_sameState_KL_Theo_A_45]”, the “apparent KD of K4 kissing-loop reporter” value reads like this: (input ligand: FMN 200 uM) 418 nM; (input ligand: arginine 13.2 mM) 181 nM; (input ligand: none) 321 nM; under setting [1], 338 nM; under setting [2], 217 nM.

Take “UUGUUUCCGACGGCCGCCACUGGUUUCUUUGUUGUAGUGAUGUUGCGGUGGAAUGAUAGCGUUAACAGGACCGGGUCGGUGAGAC [theeternabot_sameState_KL_Trp_B_42]”: the “apparent KD of K4 kissing-loop reporter” value stood at 1280 nM (input ligand: FMN 200 uM); 547 nM (input ligand: arginine 13.2 mM); 774 nM (input ligand: none); 580 nM under setting [1]; 451 nM under setting [2].

For the sequence “UUUAAAUAUAGUGAUGUUAUAUAACAAUGACGAGGACCGGUACGGCCGCCACUCGAGAGAGAUAAUGGUCUAUAGAAUCUAUAGC [AstrosSSTryA#4]”, the “apparent KD of K4 kissing-loop reporter” value runs as follows: (input ligand: FMN 200 uM) 726 nM; (input ligand: arginine 13.2 mM) 622 nM; (input ligand: none) 803 nM; under setting [1], 870 nM; under setting [2], 508 nM.

“UUUACCAGUGAUGUUGGCCUAGUAUUUACACGAGGACCGGUACGGCCGCCACUCGCAUUAUCGGACUUUGAUAAGCAUAUUAUAU [theeternabot_sameState_KL_Trp_A_28]”: the “apparent KD of K4 kissing-loop reporter” value runs as follows: (input ligand: FMN 200 uM) 317 nM; (input ligand: arginine 13.2 mM) 283 nM; (input ligand: none) 318 nM; under setting [1], 384 nM; under setting [2], 199 nM.

On to “UUUAGAUGAAGUGAUACCAGACUUGAAAGUGAUGUUUUCCAAUAAUUUAAAUUAUUAGCUGUCCCUUGGCAGCACAGUUUAUUUA [JR_ExcTheophyB_Sub008]”, for which the “apparent KD of K4 kissing-loop reporter” value by setting is: (input ligand: FMN 200 uM) 229 nM; (input ligand: arginine 13.2 mM) 326 nM; (input ligand: none) 282 nM; under setting [1], 346 nM; under setting [2], 193 nM.

In the case of “UUUCGGUUCUGAGGAUAUUCGGACAAAUAUAGUGAUGUUGUAUAAGGAGGAGGGUGUUGGCAGUGAGGAGAAGGCAGAAGAGGAU [ExFMNB.T]”, the “apparent KD of K4 kissing-loop reporter” value by setting is: (input ligand: FMN 200 uM) 1000 nM; (input ligand: arginine 13.2 mM) 677 nM; (input ligand: none) 946 nM; under setting [1], 524 nM; under setting [2], 622 nM.

Turning to “UUUCGUCUCUGAGGAUAUCAGAGGAGAGUGAUGUUCUCCCAUAGCCCAGUGAUGUUGGAUGCUAUCUGAGAAGGCAGUGGGCGAA [Same State FMN B GF 13]”, the “apparent KD of K4 kissing-loop reporter” value is, setting by setting: (input ligand: FMN 200 uM) 143 nM; (input ligand: arginine 13.2 mM) 141 nM; (input ligand: none) 164 nM; under setting [1], 144 nM; under setting [2], 155 nM.

As for “UUUCUACCGGGAAGGAGCGUGAAUGAUAAUGGAUAUAGUGAUGUUAUAUAUAAGAACGAAUCGCAGGUAGGUCGCCCGGAUGACU [SSArgB.S]”, the “apparent KD of K4 kissing-loop reporter” value came to 311 nM (input ligand: FMN 200 uM); 333 nM (input ligand: arginine 13.2 mM); 352 nM (input ligand: none); 397 nM under setting [1]; 310 nM under setting [2].

For “UUUGUAUCGGGAAGGAGCGUGAAUGAUAAUGAAUAUAGUGAUGUUAUAUAUAAGAACGAAUCACAGGUAGGUCGCCCGGAUGAGU [SSArgB.N]”, the “apparent KD of K4 kissing-loop reporter” value (input ligand: FMN 200 uM) was 548 nM; the “apparent KD of K4 kissing-loop reporter” value (input ligand: arginine 13.2 mM) is 387 nM; the “apparent KD of K4 kissing-loop reporter” value (input ligand: none) stood at 486 nM; the “apparent KD of K4 kissing-loop reporter” value under setting [1] came out at 548 nM; the “apparent KD of K4 kissing-loop reporter” value under setting [2] stood at 460 nM.

In the case of “UUUUUAAUCGCAGAUACCAGUCCAGAAUGAAUACUAUAGUGAUGUUAUAAUAAAGGGAAGGACCCUUGGCAGCUGUAAUAUAUUU [AstrosSsTheB#5]”, the “apparent KD of K4 kissing-loop reporter” value is, setting by setting: (input ligand: FMN 200 uM) 386 nM; (input ligand: arginine 13.2 mM) 315 nM; (input ligand: none) 416 nM; under setting [1], 318 nM; under setting [2], 298 nM.

As to “UUUUUAUAAGAGGAUACCAGUACAAAUAAAGUACAUUAAUAGUAGAGUGAUGUUCUAAAGUACCCUUGGCAGCUUAGAUUAAGUU [ExTheophylB.D]”, the “apparent KD of K4 kissing-loop reporter” value was 158 nM (input ligand: FMN 200 uM); 268 nM (input ligand: arginine 13.2 mM); 172 nM (input ligand: none); 255 nM under setting [1]; 117 nM under setting [2].

Turning to “UUUUUCGCGUUUGAUACCAGCAGAGUUGUUCGUGUCUGGAACAUGAGUGAUGUUCAUGUCUGCCCUUGGCAGCAAACGGGAGAAG [KL-XTheo-B13]”, the “apparent KD of K4 kissing-loop reporter” value reads like this: (input ligand: FMN 200 uM) 127 nM; (input ligand: arginine 13.2 mM) 112 nM; (input ligand: none) 103 nM; under setting [1], 87.8 nM; under setting [2], 124 nM.
